Test results published in US20080207503A1, “Composition and Treatment Methods for Coronary Artery Disease” (priority 2005, published 2008).

Assay: Sphingomyelinase treatment of ICP (hydrolysis of SPM, TLC, cholesterol release)
Type: biochemical, human
Experimental: FIG. 7A show the effect of hydrolyzing SPM on ICP by sphingomyelinase on the ICP SPM to PC ratio. Following incubation of ICP in 0.25 M Tris buffer containing 20 mM MgCl2 with 50 units of bacterial sphingomyelinase for 6 hrs at 37° C., the reaction of sphingomyelinase was stopped by adding EDTA and a subsequent wash. A change in the SPM to PC ratio of insoluble ICP was examined by TLC. SPM to PC ratios of control ICP (top) and sphingomyelinase-treated ICP (bottom) were 1.69 and 0.49, respectively.
FIG. 7B show the effect of hydrolyzing SPM on ICP by sphingomyelinase on the release of ICP cholesterol by apo HDL or R-HDL. ICP sphingomyelinase treatment was as described in FIG. 7A. Release of cholesterol from control or sphingomyelinase-treated ICP was then measured after incubation of ICP at ICP FC to apo HDL ratio=1:2.5 or ICP FC to R-HDL PC ratio of 1:10.
Treatment of ICP with bacterial sphingomyelinase hydrolyzed 70% of ICP SPM. […] Rather, the release of ICP cholesterol into TBS, apo HDL, or R-HDL was reduced by prior sphingomyelinase treatment of ICP (FIG. 7B). As a model of ICP, artificial multilamellar SPM vesicles enriched with FC (SPM/FC ratio=1) or containing no FC (control SPM) were incubated with R-HDL. Then, PC and SPM content in residual insoluble multilamellar SPM vesicles and solubilized vesicles were determined by TLC (FIG. 7C). After incubation of FC-enriched multilamellar SPM vesicles (SPM/FC+, FIG. 7C, lane 1) with R-HDL (lane 4), insoluble multilamellar vesicles contained not only SPM but also PC (lane 2), while the soluble fraction contained only PC (lane 3). In contrast, following incubation of FC-free multilamellar SPM vesicles (SPM/FC−, lane 5) with R-HDL (lane 8), the residual insoluble multilamellar vesicles contained SPM and no PC (lane 6), and the upper soluble fraction contained both SPM and PC (lane 7).

B1: bacterial sphingomyelinase: Bacterial (Bacilus cereus) sphingomyelinase from Sigma (protein, UniProt P09599 28-333, looked up)
Sphingomyelinase C: DTSTDQNNTLKVMTHNVYMLSTNLYPNWGQSQRADLIGAADYIKNQDVVILNEVFDNSASDRLLGNLKKEYPNQTAVLGRSNGNEWDKTLGSYSSSTPEDGGVAIVSKWPIVEKIQYVFAKGCGPDNLSNKGFVYTKIKKNDRFVHVIGTHLQAEDSMCGKTSPASVRTNQLKEIQDFIKNKNIPNDEYVLFGGDMNVNKINAENNSDSEYASMFKTLHASIPSYTGHTATWDATTNSIAKYNFPDSPAEYLDYIIASKDHANPSFIENKVLQPKSPQWTVTSWLKKYTYDDYSDHYPVAATISMK
ICP SPM hydrolyzed (50 units bacterial sphingomyelinase, 6 hrs, 37° C.): 70% | release of ICP cholesterol into TBS, apo HDL or R-HDL after prior sphingomyelinase treatment (in words) (FIG. 7B): reduced | ICP SPM/PC ratio after sphingomyelinase treatment (control ICP 1.69 / 1.6, TLC): 0.49
